Assays:
Test in all cases: cryo-EM structure
[1] = target: zip protein (CIV minor capsid protein) (Chilo iridescent virus (CIV))
[2] = target: pentameric vertex complex of CIV (vertex protein) (Chilo iridescent virus (CIV))
cryo-EM structure = target: the molecule itself

“zip protein (CIV minor capsid protein) (natural protein)” was tested, and the stoichiometry N [1] was 2.

“pentameric vertex complex of CIV (vertex protein) (natural protein)” gave a stoichiometry N [2] of 5.

B1: P50, the CIV major capsid protein (MCP) (natural protein)
chain: MSISSSNVTSGFIDIATKDEIEKYMYGGKTSTAYFVRETRKATWFTQVPVSLTRANGSANFGSEWSASISRAGDYLLYTWLRVRIPSVTLLSTNQFGANGRIRWCRNFMHNLIRECSITFNDLVAARFDHYHLDFWAAFTTPASKAVGYDNMIGNVSALIQPQPVPVAPATVSLPEADLNLPLPFFFSRDSGVALPTAALPYNEMRINFQFHDWQRLLILDNIAAVASQTVVPVVGATSDIATAPVLHHGTVWGNYAIVSNEERRRMGCSVRDILVEQVQTAPRHVWNPTTNDAPNYDIRFSHAIKALFFAVRNTTFSNQPSNYTTASPVITSTTVILEPSTGAFDPIHHTTLIYENTNRLNHMGSDYFSLVNPWYHAPTIPGLTGFHEYSYSLAFNEIDPMGSTNYGKLTNISIVPTASPAAKVGAAGTGPAGSGQNFPQTFEFIVTALNNNIIRISGGALGFPVL
With B1 the “stoichiometry N” value (cryo-EM structure) was 3.

From article PMC2911444 (Journal of molecular biology, 2008)
